Experimental data from the supplement of paper PMC12764529.
± gives the half width of the 95% confidence interval.

How the values were obtained:
[1] = folding stability dG unfold from chymotrypsin proteolysis; higher = more stable
Procedure, shortened: (§1)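 K50 was inferred by Bayesian fitting of sequencing counts obtained after protease digestion of designed mini-proteins. Unfolding free energy was derived by comparison with a sequence-predicted unfolded-state K50 and a shared folded-state K50, for each protease or both combined. The mini-proteins were under 80 residues, had no cysteine, were carried in a PA-tagged cDNA display construct, and were kept only if AlphaFold2 dimer inter-PAE exceeded 15.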

[2] = folding stability dG unfold from trypsin proteolysis; higher = more stable
Procedure, shortened: as §1

[3] = folding stability dG unfold (combined trypsin and chymotrypsin); higher = more stable
Procedure, shortened: as §1

Row | Sequence | folding stability dG unfold [1] [kJ/mol] | folding stability dG unfold [2] [kJ/mol] | folding stability dG unfold [3] [kJ/mol]
1 | SAGGSAGGSAKMVIVNITLKNKDGKEFTISIEADPSVIKNIIKKLFNAKINKIEIYPLSEALSAGGSAGGSA [r18_107_TrMRF] | 9.25 ± 0.335 | 10.4 ± 0.46 | 9.53 ± 0.628
2 | SAGGSAGGSAKPKPVETVEVTVTGKDGKKYKVTVVYDEKTGKLYVKYNGKIYKVDSLEEALKSAGGSAGGSA [r18_67_TrROS_Hall] | 17.2 ± 0.305 | 10.2 ± 0.795 | 16.2 ± 0.837
3 | SAGGSAGGSAKPKVVLVEYDEKTGKFKIVFPDGKELEITGLTPEQIKELAKSLGADYVIIESAGGSAGGSAG [r3_78_TrMRF] | 17 ± 0.41 | 14.2 ± 0.502 | 16 ± 0.377
4 | SAGGSAGGSAKPLKKLVLLLKVKGPFEEVEKILNEEFGVKKIVAFKDPETDEVYALIYLGDPSAGGSAGGSA [r18_275_TrMRF] | 12 ± 0.167 | 9.34 ± 0.218 | 11 ± 0.356
5 | SAGGSAGGSAKPNKKFKFELVEVKEIEIYDKETNEKVYKISVAKVRLEDGSLLTFISIEEKSAGGSAGGSAG [r3_166_TrROS_Hall] | 15.8 ± 0.247 | 9.8 ± 0.356 | 13.3 ± 0.92
6 | SAGGSAGGSAKPPVTLTILVKNPETGEWVRLEVEFLPDGTVKITVTNPNGEKYTFTFKLPPSAGGSAGGSAG [r3_61_TrROS_Hall] | 23.4 ± 0.669 | 15.4 ± 0.753 | 23.4 ± 1.13
7 | SAGGSAGGSAKPRVKIVEVDEEKKRVLVKTEDGEVVELEGLTPEQIEELAKALGADEVELVSAGGSAGGSAG [r3_78_TrROS_Hall] | 6.41 ± 0.397 | 0.727 ± 0.293 | 4.67 ± 0.711
8 | SAGGSAGGSAKPTYRVLVKNEDGEVLEAEVKVVDGKVEVTVNGKVYTFPKGAKIEIVKIEPVSAGGSAGGSA [r18_144_TrROS_Hall] | 12.2 ± 0.226 | 14 ± 0.837 | 12.9 ± 0.46
9 | SAGGSAGGSAKTITITVKPEDMTEEELKEKIAEELGIDPEEIEIVKVEKLPNGEVKVTIKIKSAGGSAGGSA [r18_118_TrROS_Hall] | 8.08 ± 0.46 | 15 ± 0.711 | 12.9 ± 0.669
10 | SAGGSAGGSAKTVVINIKDLKLSKDGKLTVEEIKKRIKELLKKKGIKKVTVKTVEELLKALKSAGGSAGGSA [r18_72_TrROS_Hall] | 5.9 ± 0.36 | 3.76 ± 0.259 | 5.26 ± 0.31
11 | SAGGSAGGSAKTYEVKITVTNPNGEKKEITLEVEAETEEELLAAIKALAPPGAKVEIEIREVSAGGSAGGSA [r18_60_TrROS_Hall] | 15.4 ± 0.314 | 18.1 ± 1.17 | 16.7 ± 0.544
12 | SAGGSAGGSAKVKAEIEYDPATGKITIKLITEDERGGKTEEAEITIPIPIPAPPAPPADVDKSAGGSAGGSA [r18_361_TrMRF] | 7.08 ± 0.628 | -0.0997 ± 0.502 | 5.29 ± 0.502
13 | SAGGSAGGSAKVKIVIKNENGEEFEIEMSEEELKKKLKPGDKVKIKIEKVNGKLKITIEKESAGGSAGGSAG [r3_86_TrROS_Hall] | 8.81 ± 0.669 | 4.89 ± 0.502 | 8.47 ± 1.17
14 | SAGGSAGGSAKYILITAPKDNEEKVLEIAEELEKKYGVKLHKVERLPDGTVKALVEIFAPEKSAGGSAGGSA [r18_351_TrMRF] | 2.82 ± 0.711 | 0.238 ± 0.305 | 1.83 ± 0.586
15 | SAGGSAGGSAKYITIFFWGSVEEALKSIPIPPGFKVEIDNIHRNPDGWMWVMITIEIPPNMKSAGGSAGGSA [r18_510_TrROS] | 18.3 ± 0.502 | 11.2 ± 0.368 | 17.9 ± 0.92
16 | SAGGSAGGSALDDFKIEEVQYDPDGNTIRFIFKFPGQVWILRIRMPKNGKMEIEWIPADDISAGGSAGGSAG [r3_167_TrROS] | 18.2 ± 0.962 | 16.6 ± 0.879 | 18.3 ± 0.753
17 | SAGGSAGGSALEIPFEVVDEKDFLLEGDYIVRVAELKNGLRALAIYDPKTGKVLVIVSPGGSAGGSAGGSAG [r3_438_TrMRF] | 8.67 ± 0.238 | 8.05 ± 0.628 | 9.08 ± 0.711
18 | SAGGSAGGSALKPGEPITIIFLFKEPNGRPYIMVIEIEVNPDGGIKIKGMEMITLEDLDKISAGGSAGGSAG [r3_212_TrROS] | 19 ± 0.795 | 12.4 ± 0.879 | 18.5 ± 1.05
